The source of these data is PMC12959268, “Mapping the nonribosomal specificity code through promiscuity-guided A-domain engineering” (Chemical Science, 2026).

Test in all cases: MesG/hydroxylamine adenylation assay (pyrophosphate release)
Type in all cases: biochemical, Bacillus subtilis
Holding throughout (settings): 5 mM ATP, 5 mM MgCl2, 150 mM hydroxylamine, pH 7.6, 30 °C

Substrate in series [1]: CC(C)C[C@H](N)C(=O)O
Substrate in series [2]: CSCC[C@H](N)C(=O)O
Substrate in series [3]: N[C@@H](Cc1ccccc1)C(=O)O

B1: SrfAC (Bacillus subtilis subsp. subtilis str. 168) (protein)
chain: MSQFSKDQVQDMYYLSPMQEGMLFHAILNPGQSFYLEQITMKVKGSLNIKCLEESMNVIMDRYDVFRTVFIHEKVKRPVQVVLKKRQFHIEEIDLTHLTGSEQTAKINEYKEQDKIRGFDLTRDIPMRAAIFKKAEESFEWVWSYHHIILDGWCFGIVVQDLFKVYNALREQKPYSLPPVKPYKDYIKWLEKQDKQASLRYWREYLEGFEGQTTFAEQRKKQKDGYEPKELLFSLSEAETKAFTELAKSQHTTLSTALQAVWSVLISRYQQSGDLAFGTVVSGRPAEIKGVEHMVGLFINVVPRRVKLSEGITFNGLLKRLQEQSLQSEPHQYVPLYDIQSQADQPKLIDHIIVFENYPLQDAKNEESSENGFDMVDVHVFEKSNYDLNLMASPGDEMLIKLAYNENVFDEAFILRLKSQLLTAIQQLIQNPDQPVSTINLVDDREREFLLTGLNPPAQAHETKPLTYWFKEAVNANPDAPALTYSGQTLSYRELDEEANRIARRLQKHGAGKGSVVALYTKRSLELVIGILGVLKAGAAYLPVDPKLPEDRISYMLADSAAACLLTHQEMKEQAAELPYTGTTLFIDDQTRFEEQASDPATAIDPNDPAYIMYTSGTTGKPKGNITTHANIQGLVKHVDYMAFSDQDTFLSVSNYAFDAFTFDFYASMLNAARLIIADEHTLLDTERLTDLILQENVNVMFATTALFNLLTDAGEDWMKGLRCILFGGERASVPHVRKALRIMGPGKLINCYGPTEGTVFATAHVVHDLPDSISSLPIGKPISNASVYILNEQSQLQPFGAVGELCISGMGVSKGYVNRADLTKEKFIENPFKPGETLYRTGDLARWLPDGTIEYAGRIDDQVKIRGHRIELEEIEKQLQEYPGVKDAVVVADRHESGDASINAYLVNRTQLSAEDVKAHLKKQLPAYMVPQTFTFLDELPLTTNGKVNKRLLPKPDQDQLAEEWIGPRNEMEETIAQIWSEVLGRKQIGIHDDFFALGGHSLKAMTAASRIKKELGIDLPVKLLFEAPTIAGISAYLKNGGSDGLQDVTIMNQDQEQIIFAFPPVLGYGLMYQNLSSRLPSYKLCAFDFIEEEDRLDRYADLIQKLQPEGPLTLFGYSAGCSLAFEAAKKLEEQGRIVQRIIMVDSYKKQGVSDLDGRTVESDVEALMNVNRDNEALNSEAVKHGLKQKTHAFYSYYVNLISTGQVKADIDLLTSGADFDMPEWLASWEEATTGVYRVKRGFGTHAEMLQGETLDRNAEILLEFLNTQTVTVS
notes: full module C-A-T-TE, C-terminal His6 tag, holo form, from pTrc99a-srfAC in E. coli HM0079
Usually Km stands for the substrate concentration at which the rate is half of its maximum. Consider B1, for which, in series [1], the Km was determined as 13 ± 1 µM.

B2: SrfAC (Bacillus subtilis subsp. subtilis str. 168; A660V/C752A/F702S) (protein)
chain: MSQFSKDQVQDMYYLSPMQEGMLFHAILNPGQSFYLEQITMKVKGSLNIKCLEESMNVIMDRYDVFRTVFIHEKVKRPVQVVLKKRQFHIEEIDLTHLTGSEQTAKINEYKEQDKIRGFDLTRDIPMRAAIFKKAEESFEWVWSYHHIILDGWCFGIVVQDLFKVYNALREQKPYSLPPVKPYKDYIKWLEKQDKQASLRYWREYLEGFEGQTTFAEQRKKQKDGYEPKELLFSLSEAETKAFTELAKSQHTTLSTALQAVWSVLISRYQQSGDLAFGTVVSGRPAEIKGVEHMVGLFINVVPRRVKLSEGITFNGLLKRLQEQSLQSEPHQYVPLYDIQSQADQPKLIDHIIVFENYPLQDAKNEESSENGFDMVDVHVFEKSNYDLNLMASPGDEMLIKLAYNENVFDEAFILRLKSQLLTAIQQLIQNPDQPVSTINLVDDREREFLLTGLNPPAQAHETKPLTYWFKEAVNANPDAPALTYSGQTLSYRELDEEANRIARRLQKHGAGKGSVVALYTKRSLELVIGILGVLKAGAAYLPVDPKLPEDRISYMLADSAAACLLTHQEMKEQAAELPYTGTTLFIDDQTRFEEQASDPATAIDPNDPAYIMYTSGTTGKPKGNITTHANIQGLVKHVDYMAFSDQDTFLSVSNYAFDVFTFDFYASMLNAARLIIADEHTLLDTERLTDLILQENVNVMSATTALFNLLTDAGEDWMKGLRCILFGGERASVPHVRKALRIMGPGKLINAYGPTEGTVFATAHVVHDLPDSISSLPIGKPISNASVYILNEQSQLQPFGAVGELCISGMGVSKGYVNRADLTKEKFIENPFKPGETLYRTGDLARWLPDGTIEYAGRIDDQVKIRGHRIELEEIEKQLQEYPGVKDAVVVADRHESGDASINAYLVNRTQLSAEDVKAHLKKQLPAYMVPQTFTFLDELPLTTNGKVNKRLLPKPDQDQLAEEWIGPRNEMEETIAQIWSEVLGRKQIGIHDDFFALGGHSLKAMTAASRIKKELGIDLPVKLLFEAPTIAGISAYLKNGGSDGLQDVTIMNQDQEQIIFAFPPVLGYGLMYQNLSSRLPSYKLCAFDFIEEEDRLDRYADLIQKLQPEGPLTLFGYSAGCSLAFEAAKKLEEQGRIVQRIIMVDSYKKQGVSDLDGRTVESDVEALMNVNRDNEALNSEAVKHGLKQKTHAFYSYYVNLISTGQVKADIDLLTSGADFDMPEWLASWEEATTGVYRVKRGFGTHAEMLQGETLDRNAEILLEFLNTQTVTVS
notes: as for B1
Regarding B2, the Km in series [2] was found to be 4600 ± 900 µM; in series [3], 1300 ± 100 µM; in series [1], 510 ± 50 µM.
